We go through one molecule from paper PMC11044105, “Overcoming Lot-to-Lot Variability in Protein Activity Using Epitope-Specific Calibration-Free Concentration Analysis” (Analytical Chemistry, 2024).

This assay concerns the target T1, ProteinA (UniProt P38507).
T1 construct: the form on the sensor is not described; Sensor-chip Protein A is probably a recombinant form; also called ProteinA sensor chip; ProteinA-CM5; source: on SPR sensor chips (ProteinA chip or ProteinA-conjugated CM5 chip)
In words: SPR; calibration-free concentration analysis (CFCA) on Biacore T200, 1x PBST; NISTmAb 8671 as analyte over ProteinA/ProteinG sensors to assign form factors. The conditions noted are these: both partners purified.

B1: NISTmAb 8671 (antibody, V domains shown)
VH: QVTLRESGPALVKPTQTLTLTCTFSGFSLSTAGMSVGWIRQPPGKALEWLADIWWDDKKHYNPSLKDRLTISKDTSKNQVVLKVTNMDPADTATYYCARDMIFNFYFDVWGQGTTVTVSS
VL: DIQMTQSPSTLSASVGDRVTITCSASSRVGYMHWYQQKPGKAPKLLIYDTSKLASGVPSRFSGSGSGTEFTLTISSLQPDDFATYYCFQGSGYPFTFGGGTKVEIK
As to B1, the binding result was “binds”.
